Results on four molecules are retold here after publication PMC5148612, “Mechanism of cargo-directed Atg8 conjugation during selective autophagy” (eLife, 2016).

What all share (conditions): both partners purified
The target in one assay is T1, Atg12~Atg5-Atg16 complex (S. cerevisiae, UniProt P38316 1-186; Q12380 1-294; Q03818 1-150, conjugated to Atg5 (Atg12~Atg5 protein conjugate) | conjugated to Atg12).
T1 construct: Atg12, S. cerevisiae; Atg5, S. cerevisiae; Atg16, S. cerevisiae; conjugate made by co-expression with Atg7 and Atg10 (SMC131); details in Romanov et al., 2012; also called E3-like complex; source: E. coli Rosetta pLysS; Atg12~Atg5 conjugate mixed 1:1 with purified Atg16, purified by size exclusion chromatography; not shown: GST, N-terminal, cleaved; copies: + +
T1 sequence (looked up) 1: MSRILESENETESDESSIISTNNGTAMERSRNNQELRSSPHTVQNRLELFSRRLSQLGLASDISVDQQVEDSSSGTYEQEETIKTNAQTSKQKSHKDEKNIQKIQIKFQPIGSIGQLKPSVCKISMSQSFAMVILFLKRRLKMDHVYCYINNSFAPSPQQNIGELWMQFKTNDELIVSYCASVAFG
T1 sequence (looked up) 2: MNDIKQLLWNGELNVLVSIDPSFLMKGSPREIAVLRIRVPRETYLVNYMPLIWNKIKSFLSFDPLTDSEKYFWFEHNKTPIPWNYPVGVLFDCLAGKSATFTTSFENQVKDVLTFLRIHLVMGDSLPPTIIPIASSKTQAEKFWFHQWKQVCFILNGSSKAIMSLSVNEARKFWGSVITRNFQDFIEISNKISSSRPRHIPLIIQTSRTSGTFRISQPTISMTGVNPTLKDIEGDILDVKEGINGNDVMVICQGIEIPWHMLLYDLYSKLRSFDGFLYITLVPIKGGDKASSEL
T1 sequence (looked up) 3: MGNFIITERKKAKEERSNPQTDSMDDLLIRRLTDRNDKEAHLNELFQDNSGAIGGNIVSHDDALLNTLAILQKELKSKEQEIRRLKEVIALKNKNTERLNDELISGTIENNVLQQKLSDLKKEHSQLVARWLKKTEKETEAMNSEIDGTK
Put plainly: pull-down; GST-fused bait 5 µM and GST-free prey 5 µM with glutathione Sepharose 4B, 1 hr at 4°C; washed with 25 mM HEPES pH 7.5, 150 mM NaCl, 1 mM DTT and 0.1% TritonX100; Western blot (Figures 1A, 1C, 2A, 2C). (In general: A western blot detects proteins with antibodies after separation by electrophoresis.)

Assay [1] deals with T2, Atg5-mCherry-Atg16 (1–46) complex (S. cerevisiae, UniProt Q12380 1-294; Q03818 1-46).
T2 construct: Atg5, S. cerevisiae; Atg16, S. cerevisiae, first 46 amino acids; a TEV site follows the His tag of Atg5; no cleavage is described; source: E. coli Rosetta pLysS, co-expressed, purified (Ni-NTA, Superdex 200); not shown: mCherry, C-terminal, kept
T2 sequence (looked up) 1: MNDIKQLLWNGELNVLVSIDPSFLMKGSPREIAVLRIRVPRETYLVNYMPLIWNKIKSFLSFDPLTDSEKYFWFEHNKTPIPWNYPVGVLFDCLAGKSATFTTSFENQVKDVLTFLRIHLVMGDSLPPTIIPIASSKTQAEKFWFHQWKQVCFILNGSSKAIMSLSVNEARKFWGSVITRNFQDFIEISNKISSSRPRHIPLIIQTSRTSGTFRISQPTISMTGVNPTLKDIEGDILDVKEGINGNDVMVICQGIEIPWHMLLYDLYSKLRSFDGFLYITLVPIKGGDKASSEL
T2 sequence (looked up) 2: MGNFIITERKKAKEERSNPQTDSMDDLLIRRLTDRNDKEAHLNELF
The assay is described as follows: microscopy-based protein-protein interaction assay on beads; glutathione beads coated with GST-fused proteins at 30 µM, Atg5-mCherry-Atg16 (1–46) 18 µM, equilibrium (Figure 3B, C).

For another assay, the target named is T3, Atg5-Atg16 (1–46) (S. cerevisiae, UniProt Q12380 1-294; Q03818 1-46).
T3 construct: Atg5, S. cerevisiae; Atg16, S. cerevisiae, first 46 amino acids; the His tag of Atg5 is followed by a TEV site; also called Atg5 stabilized with the N-terminal helix of Atg16; Atg5-Atg16 (1–46) wild type; source: E. coli, co-expressed and purified in complex
T3 sequence 1: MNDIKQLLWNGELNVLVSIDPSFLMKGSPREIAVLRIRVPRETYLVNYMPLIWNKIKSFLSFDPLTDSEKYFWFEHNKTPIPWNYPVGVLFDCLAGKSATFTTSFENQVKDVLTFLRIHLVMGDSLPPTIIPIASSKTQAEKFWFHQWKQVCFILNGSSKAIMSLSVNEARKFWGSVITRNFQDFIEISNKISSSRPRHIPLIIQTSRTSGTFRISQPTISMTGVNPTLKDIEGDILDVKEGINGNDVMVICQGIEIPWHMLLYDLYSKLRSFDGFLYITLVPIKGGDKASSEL
T3 sequence 2: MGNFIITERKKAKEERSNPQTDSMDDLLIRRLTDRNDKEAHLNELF
The assay is described as follows: pull-down; GST-fused bait 20 µM and GST-free prey 5 µM with glutathione Sepharose 4B, 1 hr at 4°C; washed with 25 mM HEPES pH 7.5, 150 mM NaCl, 1 mM DTT; anti-Atg5 Western blot (Figure 2E, Figure 3—figure supplement 1, Figure 4C).

The next assay addresses T4, Atg5-Atg16 complex (S. cerevisiae, UniProt Q12380 1-294; Q03818 1-150).
T4 construct: Atg5, S. cerevisiae; Atg16, S. cerevisiae; source: E. coli Rosetta pLysS; Atg5 cleaved from GST mixed 1:1 with purified Atg16, purified by size exclusion chromatography; not shown: GST, N-terminal, cleaved
T4 sequence (looked up) 1: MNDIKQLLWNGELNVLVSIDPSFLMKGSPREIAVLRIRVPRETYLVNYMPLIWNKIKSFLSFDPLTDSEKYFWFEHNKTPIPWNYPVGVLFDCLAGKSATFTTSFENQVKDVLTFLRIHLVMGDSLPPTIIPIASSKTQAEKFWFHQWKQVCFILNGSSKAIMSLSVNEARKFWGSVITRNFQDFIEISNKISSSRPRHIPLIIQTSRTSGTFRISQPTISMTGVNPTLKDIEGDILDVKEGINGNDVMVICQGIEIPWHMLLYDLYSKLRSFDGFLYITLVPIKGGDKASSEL
T4 sequence (looked up) 2: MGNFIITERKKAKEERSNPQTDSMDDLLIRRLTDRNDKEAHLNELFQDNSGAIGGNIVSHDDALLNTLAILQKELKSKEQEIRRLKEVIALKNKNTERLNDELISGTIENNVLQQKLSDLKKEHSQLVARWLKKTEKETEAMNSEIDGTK
Described as above.

The next assay deals with T5, GFP-Atg8∆R117 (S. cerevisiae, UniProt P38182 1-116).
T5 construct: Atg8, S. cerevisiae, without its last residue R117; also called meGFP-Atg8∆R117; 6xHis-meGFP-Atg8∆R117; source: E. coli Rosetta pLysS, purified; not shown: meGFP, N-terminal, kept
T5 sequence (looked up): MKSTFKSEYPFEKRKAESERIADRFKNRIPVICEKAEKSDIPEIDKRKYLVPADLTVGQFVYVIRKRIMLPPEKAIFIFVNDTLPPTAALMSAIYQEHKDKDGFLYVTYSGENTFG
Put plainly: microscopy-based competition assay on beads; beads coated with GST-Atg19(365–415) at 30 µM, Atg5-mCherry-Atg16 (1–46) 18 µM; then GFP-Atg8∆R117 18 µM (1x), then Atg8 400 µM (22x); 25 mM HEPES pH 7.5, 150 mM NaCl, 1 mM DTT (Figure 3E, F).

For the next assay, the target named is T6, Atg12~Atg5 conjugate (S. cerevisiae, UniProt P38316 1-186; Q12380 1-294, conjugated to Atg5 (Atg12~Atg5 protein conjugate) | conjugated to Atg12).
T6 construct: Atg12, S. cerevisiae; Atg5, S. cerevisiae; the two chains are covalently joined; source: E. coli Rosetta pLysS, co-expression of 6xHis-Atg5, Atg12, Atg7 and Atg10, purified
T6 sequence (looked up) 1: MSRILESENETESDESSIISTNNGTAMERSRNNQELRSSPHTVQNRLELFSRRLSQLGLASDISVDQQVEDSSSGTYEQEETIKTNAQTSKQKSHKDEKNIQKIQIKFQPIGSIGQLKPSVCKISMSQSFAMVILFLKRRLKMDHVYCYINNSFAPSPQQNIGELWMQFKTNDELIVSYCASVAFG
T6 sequence (looked up) 2: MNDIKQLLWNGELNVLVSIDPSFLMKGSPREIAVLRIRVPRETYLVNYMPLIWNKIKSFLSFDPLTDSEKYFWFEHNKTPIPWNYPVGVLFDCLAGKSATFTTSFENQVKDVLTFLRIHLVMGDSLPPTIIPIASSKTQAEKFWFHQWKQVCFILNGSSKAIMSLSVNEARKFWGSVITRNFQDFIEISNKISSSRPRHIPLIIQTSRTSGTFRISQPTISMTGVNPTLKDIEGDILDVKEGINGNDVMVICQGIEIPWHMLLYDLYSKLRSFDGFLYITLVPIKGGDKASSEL
The assay is described as follows: SEC; separately purified proteins mixed in a molar ratio 1:1 for 30 min at 4°C or on ice; the resulting complex purified on Superdex S200 16/60. For orientation: Size exclusion chromatography separates by hydrodynamic size, large species first.

Another assay concerns the target T7, Atg5 (S. cerevisiae, UniProt Q12380 1-294).
T7 construct: Atg5, S. cerevisiae; in the co-purification with Atg16 (1–46) the GST was still on the protein while it was held on glutathione beads; also called GST-Atg5; source: E. coli Rosetta pLysS, on glutathione beads, cleaved off with thrombin; not shown: GST, N-terminal, cleaved
T7 sequence (looked up): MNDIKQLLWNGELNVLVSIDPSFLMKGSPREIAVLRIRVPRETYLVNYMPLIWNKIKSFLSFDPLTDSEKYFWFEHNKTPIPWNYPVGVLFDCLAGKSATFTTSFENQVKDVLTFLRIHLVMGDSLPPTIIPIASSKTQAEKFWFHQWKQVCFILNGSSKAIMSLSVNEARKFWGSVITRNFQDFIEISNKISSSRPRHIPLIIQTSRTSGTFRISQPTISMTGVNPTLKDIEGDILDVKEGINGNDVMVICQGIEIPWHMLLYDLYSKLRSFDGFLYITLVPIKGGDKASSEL
The description is as above.

B1: GST-Atg34 (natural protein, S. cerevisiae, UniProt Q12292 1-412, looked up)
chain: MKIAVETTLFDFFVIDQFKKSTFSAPNTKVDTIKGCINKFIEQFNVYDEQHIFWQPPGKSNVRLLSNANDFGQLGNFLHKKIKCNIFIGEEALRKYDLNICGPYDKFVENSDPSVKKVVNRDDVMLSRKCLNIISEQLSILEKSISKAQNQVLQSSEVEGKKCIILPEDKPELIKFFSKFETSVQLQEVYEGYKVYEKLLQKFGGQKKRMESFLNENTPMSGAEAIKQINISEELKEKGERLTTPNDPLLHVEVSNEDNSLHFILYNKTNIIIPGNCTFEFSSQISEVFSIKMGPHEIGIKGQKELWFFPSLPTPLSNYTMKVVNQDGETILVGKCADSNEITLKSPLASFSTGSFQTGSFHTLQDPTNVFRADALSSPDESSIMSTPFLGETDEVYNSGSTLSRPFTWEEI
notes: Atg34, S. cerevisiae cargo receptor; also called α-mannosidase (Ams1) receptor; source: E. coli Rosetta pLysS, purified; not shown: GST, N-terminal, kept
Turning to B1, the binding result with Atg12~Atg5-Atg16 complex was “binds”.

B2: GST-Atg19(365–415) (domain or fragment, S. cerevisiae, UniProt P35193 365-415, looked up)
chain: SAESLQASQEPFYSFQIDTLPELDDSSIISTSISLSYDGDDNEKALTWEEL
notes: Atg19, S. cerevisiae, C-terminal domain; also called Atg19 C-terminal domain; Atg19 CTD (365-415); source: E. coli Rosetta pLysS, purified; not shown: GST, N-terminal, kept
For the molecule B2, the binding result (in assay [1]; in the assay with Atg5-Atg16 (1–46); with Atg5-Atg16 complex; with GFP-Atg8∆R117) was “binds” throughout.

B3: GST-Atg19(365–407) (domain or fragment, S. cerevisiae, UniProt P35193 365-407, looked up)
chain: SAESLQASQEPFYSFQIDTLPELDDSSIISTSISLSYDGDDNE
notes: Atg19, S. cerevisiae; also called Atg19 C-terminal domain with the canonical AIM motif deleted; source: E. coli Rosetta pLysS, purified; not shown: GST, N-terminal, kept
Turning to B3, the binding result (in assay [1]; in the assay with Atg5-Atg16 (1–46)) was “binds” throughout.

B4: Atg16 (natural protein, S. cerevisiae, UniProt Q03818 1-150, looked up)
chain: MGNFIITERKKAKEERSNPQTDSMDDLLIRRLTDRNDKEAHLNELFQDNSGAIGGNIVSHDDALLNTLAILQKELKSKEQEIRRLKEVIALKNKNTERLNDELISGTIENNVLQQKLSDLKKEHSQLVARWLKKTEKETEAMNSEIDGTK
notes: Atg16, S. cerevisiae; also called purified Atg16; GST-Atg16; source: E. coli Rosetta pLysS, purified
Regarding B4, the binding result in the assay with Atg12~Atg5 conjugate and with Atg5 was “binds” throughout.
